This is an account of results in patent US20260166185A1 (Y MABS THERAPEUTICS, published 2026).

The target in experiment [1] is T1, bio-huCD38 (human (hu), UniProt P28907 43-300, biotinylated (bio-), site not stated). The experiment in a line: SPR, antibody captured on chip, antigen as analyte 200-6.25 nM. As to the method: (§1) SPR analysis was performed on a Biocore 8K+, using a CFJB0944 CM5 sensor chip for immobilization and a SPR running buffer 1×HBS-EP+pH 7.4 (Cytiva, cat no. BR100669) according to the manufacturer's instructions.
(§2) In the first part of this example the antibody was immobilized on the chip and the antigen dissolved in the SPR running buffer flowed over the chip.
In general terms: In SPR one partner is held on a chip, and binding of the other changes the refractive index at the surface.

Experiment [2] deals with T1, bio-huCD38. The experiment in a line: SPR, antigen immobilized, antibody as analyte 25-1.6 nM; estimated from ka and the limit kd. How it is done:
as §1
(§3) In the second part of this example, antigen was immobilized on the chip and antibody dissolved in the SPR running buffer flowed over the chip.

Experiment [3] deals with T1, bio-huCD38. The experiment in a line: SPR, antigen immobilized, antibody as analyte 25-1.6 nM; at the instrument's limit.
Experiment [4] deals with T1, bio-huCD38. The experiment in a line: SPR, antigen immobilized, antibody as analyte 25-1.6 nM. As to the method: as §1, §3
Another experiment concerns the target T2, CD38 on Daudi cells (UniProt P28907 1-300, limits assumed).
T2 construct: whole, on cells
Kind of experiment: titration binding FACS on Daudi cells. As to the method:
(§4) Subsequently the EC50 of antibodies samples was determined by titration binding FACS on Daudi cells (for CD38 binding evaluation), on THP-1 cells (for CD33 binding evaluation), on A-431 cells (for EGFR binding evaluation), on MKN-45 cells (for CEACAMS binding evaluation) and on HEK293T (for CD276 binding evaluation). Jurkat E6-1 or HEK293T cell lines were used as negative control, as applicable.

In another experiment the target is T3, EGFR on A-431 cells (UniProt P00533 25-1210, limits assumed).
T3 construct: whole, on cells
The experiment in a line: titration binding FACS on A-431 cells. How it is done:
as §4

In the next experiment the target is bio-huEGFR (human (hu), UniProt P00533 25-645, biotinylated (bio-), site not stated). The experiment in a line: SPR, antigen immobilized, antibody as analyte 25-1.6 nM. How it is done: as §1, §3
Experiment [5] addresses T4, bio-huCD276 (human (hu), UniProt Q5ZPR3 29-461, limits assumed, biotinylated (bio-), site not stated).
T4 construct: also called B7-H3
T4 sequence (looked up): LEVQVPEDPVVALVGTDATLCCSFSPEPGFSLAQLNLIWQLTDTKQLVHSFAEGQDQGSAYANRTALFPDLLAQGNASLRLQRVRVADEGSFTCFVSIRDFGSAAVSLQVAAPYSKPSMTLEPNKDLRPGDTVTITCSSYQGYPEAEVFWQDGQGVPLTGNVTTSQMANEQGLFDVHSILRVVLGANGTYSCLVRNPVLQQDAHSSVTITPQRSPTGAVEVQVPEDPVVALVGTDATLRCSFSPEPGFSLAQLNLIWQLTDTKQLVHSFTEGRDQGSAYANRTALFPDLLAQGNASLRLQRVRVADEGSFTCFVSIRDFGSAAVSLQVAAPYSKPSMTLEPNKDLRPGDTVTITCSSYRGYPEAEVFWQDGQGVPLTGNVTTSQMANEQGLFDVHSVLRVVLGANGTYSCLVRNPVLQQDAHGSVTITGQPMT
Kind of experiment: SPR, antibody captured on chip, antigen as analyte 400-12.5 nM. How it is done: as §1, §2

The target in the next experiment is T5, CD276 on HEK293T cells (UniProt Q5ZPR3 29-534, limits assumed).
T5 construct: whole, on cells
T5 sequence (looked up): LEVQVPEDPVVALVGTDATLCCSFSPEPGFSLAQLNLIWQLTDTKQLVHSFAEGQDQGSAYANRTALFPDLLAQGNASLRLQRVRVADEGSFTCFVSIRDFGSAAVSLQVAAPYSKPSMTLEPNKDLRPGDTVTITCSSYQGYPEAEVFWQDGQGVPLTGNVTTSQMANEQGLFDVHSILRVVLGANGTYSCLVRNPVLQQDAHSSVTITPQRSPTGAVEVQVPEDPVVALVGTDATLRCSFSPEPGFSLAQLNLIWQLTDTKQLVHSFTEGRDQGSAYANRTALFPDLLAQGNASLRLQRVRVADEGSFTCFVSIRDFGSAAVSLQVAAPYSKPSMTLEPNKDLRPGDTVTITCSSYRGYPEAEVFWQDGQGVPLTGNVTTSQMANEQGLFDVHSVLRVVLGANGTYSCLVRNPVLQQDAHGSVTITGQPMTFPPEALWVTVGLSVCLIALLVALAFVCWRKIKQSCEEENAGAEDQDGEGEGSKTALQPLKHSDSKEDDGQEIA
Kind of experiment: titration binding FACS on HEK293T cells. How it is done: as §4

Experiment [6] deals with T4, bio-huCD276. The experiment in a line: SPR, antigen immobilized, antibody as analyte 25-1.6 nM. How it is done: as §1, §3

Bounds are passed on as bounds.

B1: CD38 (Bivalent)-DOTA(Fab)-dp53 (bispecific antibody)
light: DVQLQESGGGLVQAGGSLRLSCTGSGRTFRNYPMAWFRQAPGKEREFVAGITWVGASTLYADFAKGRFTISRDNAKNTVYLQMNSLKPEDTAVYSCAAGRGIVAGRIPAEYADWGQGTQVTVSSGGGGSGGGGSGGGGSGGGGGSQAVVIQESALTTPPGETVTLTCGSSTGAVTASNYANWVQEKPDHLFTGLIGGHNNRPPGVPARFSGSLIGDKAALTIAGTQTEDEAIYFCALWYSDHWVIGGGTRLTVLGQPKANPTVTLFPPSSEELQANKATLVCLISDFYPGAVTVAWKADGSPVKAGVETTKPSKQSNNKYAASSYLSLTPEQWKSHRSYSCQVTHEGSTVEKTVAPTECS
heavy: DVQLQESGGGLVQAGGSLRLSCTGSGRTFRNYPMAWFRQAPGKEREFVAGITWVGASTLYADFAKGRFTISRDNAKNTVYLQMNSLKPEDTAVYSCAAGRGIVAGRIPAEYADWGQGTQVTVSSGGGGSGGGGSGGGGSGGGGGSHVKLQESGPGLVQPSQSLSLTCTVSGFSLTDYGVHWVRQSPGKGLEWLGVIWSGGGTAYNTALISRLNIYRDNSKNQVFLEMNSLQAEDTAMYYCARRGSYPYNYFDAWGRGTTVTVSSASTKGPSVFPLAPSSKSTSGGTAALGCLVKDYFPEPVTVSWNSGALTSGVHTFPAVLQSSGLYSLSSVVTVPSSSLGTQTYICNVNHKPSNTKVDKKVEPKSCG
notes: No tetramerization domain; also called YM00005; molecule 4
A word on the Kd: it is the free concentration of one partner at which half of the binding sites on the other are occupied at equilibrium, for simple one-to-one binding. In general, koff refers to the first-order rate constant of dissociation. In general, kon refers to a measure of how fast the partners come together. The EC50 is the concentration needed to bring the measured effect to its halfway point. Turning to B1, the values for the Kd with bio-huCD38 [1] and in the experiment with bio-huCD38 [2] were 25.1 nM and less than 0.309 pM, respectively. The koff in the experiment with bio-huCD38 [1] was 0.00112 s⁻¹; with bio-huCD38 [3] it was less than 1e-07 s⁻¹. For the same molecule, the kon in the experiment with bio-huCD38 [1] is 44700 M⁻¹ s⁻¹; with bio-huCD38 [4], 324000 M⁻¹ s⁻¹. It took 0.32 nM to reach a half-maximal effect in the experiment with CD38 on Daudi cells (EC50).

B2: EGFR-DOTA(fab)-p53 (bispecific antibody)
light: EVQLVESGGGLVQPGGSLRLSCVASGFTFADYAMSWVRQAPGKGLQWVSSISYNGDTTYYAESMKDRFTISRDNAKNTLYLQMNSLKSEDTAVYYCASSGSYYPGHFESWGQGTQVTVSSGGGGSGGGGSGGGGSGGGGGSQAVVIQESALTTPPGETVTLTCGSSTGAVTASNYANWVQEKPDHLFTGLIGGHNNRPPGVPARFSGSLIGDKAALTIAGTQTEDEAIYFCALWYSDHWVIGGGTRLTVLGQPKANPTVTLFPPSSEELQANKATLVCLISDFYPGAVTVAWKADGSPVKAGVETTKPSKQSNNKYAASSYLSLTPEQWKSHRSYSCQVTHEGSTVEKTVAPTECS
heavy: HVKLQESGPGLVQPSQSLSLTCTVSGFSLTDYGVHWVRQSPGKGLEWLGVIWSGGGTAYNTALISRLNIYRDNSKNQVFLEMNSLQAEDTAMYYCARRGSYPYNYFDAWGRGTTVTVSSASTKGPSVFPLAPSSKSTSGGTAALGCLVKDYFPEPVTVSWNSGALTSGVHTFPAVLQSSGLYSLSSVVTVPSSSLGTQTYICNVNHKPSNTKVDKKVEPKSCGGGGSGGGGSKPLDGEYFTLQIRGRERFEMFRELNEALELKDAQAGKEPGGS
notes: The assays name bio-huEGFR and A-431 cells; also called YM00010; molecule 9
For B2, in the experiment with EGFR on A-431 cells, a half-maximal effect (EC50) was put at 51.5 nM. Besides, in the experiment with bio-huEGFR, binding was characterised by a dissociation constant (Kd) of 2.12 nM, the off-rate constant (koff) was 0.000985 s⁻¹ and the kon is 464000 M⁻¹ s⁻¹.

B3: CD276-DOTA(fab)-p53 (bispecific antibody)
light: DVQLVESGGGLVQPGGSLRLSCAASGFTFSRYWMGWFRQAPGKGVEWVSTINSGGGSTYYADSVKGRFTISRDNAKNTLYLQLNNLKTEDTAMYYCAKEQWRTGSRGQGTQVTVSSSGGGGSGGGGSGGGGSGGGGSQAVVIQESALTTPPGETVTLTCGSSTGAVTASNYANWVQEKPDHLFTGLIGGHNNRPPGVPARFSGSLIGDKAALTIAGTQTEDEAIYFCALWYSDHWVIGGGTRLTVLGQPKANPTVTLFPPSSEELQANKATLVCLISDFYPGAVTVAWKADGSPVKAGVETTKPSKQSNNKYAASSYLSLTPEQWKSHRSYSCQVTHEGSTVEKTVAPTECS
heavy: HVKLQESGPGLVQPSQSLSLTCTVSGFSLTDYGVHWVRQSPGKGLEWLGVIWSGGGTAYNTALISRLNIYRDNSKNQVFLEMNSLQAEDTAMYYCARRGSYPYNYFDAWGRGTTVTVSSASTKGPSVFPLAPSSKSTSGGTAALGCLVKDYFPEPVTVSWNSGALTSGVHTFPAVLQSSGLYSLSSVVTVPSSSLGTQTYICNVNHKPSNTKVDKKVEPKSCGGGGSGGGGSKPLDGEYFTLQIRGRERFEMFRELNEALELKDAQAGKEPGGS
notes: Tetramerizes through p53 depending on concentration; also called YM00012; molecule 11
B3: in the experiment with bio-huCD276 [5], the Kd was 40.1 nM, the koff came to 0.00456 s⁻¹ and the kon was 114000 M⁻¹ s⁻¹. In addition, the EC50 with CD276 on HEK293T cells turned out to be 2.14 nM. Moreover, in the experiment with bio-huCD276 [6], the affinity, expressed as Kd, was 2.5 nM; the dissociation rate constant (koff) was found to be 2.26e-05 s⁻¹; the kon was determined as 9050 M⁻¹ s⁻¹.
